Assay results taken from PMC4650548.

Target: NBS1 (UniProt O60934)
Assay: biotin-peptide streptavidin pull-down from lysate

- binding against the reference (reference: SDpTE peptide, sites S915): gained
- binding against the reference (reference: pSDTE peptide, sites T917): gained
Substance: PHRF1 908-924 (from UniProt Q9P1Y6) pSDpTE peptide
